Experimental data as given in patent US12102667B2, “Polypeptides and antibiotics against gram-negative bacterium comprising the same” (priority 2021, dated 2024).

What was measured:
E. coli [1] = assay: Antibacterial activity analysis (colony count after 2 hours in buffer); format: cell-based, Escherichia coli; settings: 2 μM
Description: (§1) The antibacterial activity of the purified protein was tested for E. coli and various K. pneumoniae strains. The bacterium were grown to an exponential phase (OD600=0.5) and harvested by centrifugation at 12,000×g for 3 minutes. Then, the pellets were washed with reaction buffer solution (20 mM Tris-HCl, pH 7.5) and diluted to about 10^6 cells/ml in the buffer solution. Then, 100 μl bacterial suspension was mixed with the purified endolysin of 100 μl in the reaction buffer solution and incubated at 37° C. for 2 hours. Finally, the mixture was diluted with PBS and loaded on an LB plate. After culturing at 37° C. overnight, the bacterial colonies were counted. All the analysis was performed in triplicate.
(§2) The same reaction was performed for the selected subject bacterium in 20 mM HEPES-NaOH, 150 mM NaCl [pH 7.4], and the unique antibacterial activity of Tris and dependence of endolysin for turgor pressure were excluded (FIG. 10a and FIG. 10b). […] The bacterial cells grown geometrically were cultured with 2 μM endolysin in low tonicity buffers (20 mM Tris-HCl, pH 7.5 or 20 mM HEPES, pH 7.5) or high tonicity buffers (buffer solution comprising 150 mM NaCl) at 37° C. for 2 hours. The cells treated with storage buffer solution (20 mM Tris-HCl, pH 7.5, 150 mM NaCl buffer solution (pH 7.5)) were used as a negative control group. The dotted line represents the detection limit (1 Log CFU/ml).
(§3) For this, endolysin EC340 at a concentration of 2 μM and each test bacterium were added to reaction buffer (20 mM Tris-Cl, pH 7.5) so that the final concentration was to be 200 μl, and were left at 37° C. for 2 hours. After 2 hours, the number of colonies of Acinetobacter baumannii, Pseudomonas aeruginosa and Escherichia coli was confirmed, and the result was shown in FIG. 3.

E. coli [2] = assay: Checkerboard assay (MIC in combination, FIC index); format: cell-based, Escherichia coli; settings: E. coli ATCC8738
Description: LNT113 was vertically diluted 2-fold and the antibiotic was serially diluted horizontally in a 96-well plate. Bacterium at a concentration of 10^6 CFU/ml were added to each well in a CAA medium. […] The fractional inhibitory concentration (FIC) for the LNT113 or antibiotic was calculated by dividing the MIC of two drugs by combining it with the MIC of each drug alone. […] The FICI was considered as a synergistic effect ≤0.5, an additive >0.5 ˜≤1, an independent effect (indifference)>1.0 ˜≤2, and an antagonistic effect (antagonism) >2.

[3] = test system: Pseudomonas aeruginosa (ATCC 13388); assay: Killing activity of endolysin, in vitro test; format: cell-based; settings: 2 μM, 37° C., 2 hours, 20 mM Tris-Cl pH 7.5
Description: as §3

[4] = test system: Acinetobacter baumannii (ATCC19606); assay: Killing activity of endolysin, in vitro test; format: cell-based; settings: 2 μM, 37° C., 2 hours, 20 mM Tris-Cl pH 7.5
Description: as §3

E. coli ATCC 8739 = assay: Zymogram assay; format: biochemical, Escherichia coli; settings: 3 μg purified endolysin, gel with autoclaved E. coli ATCC 8739
Description: Zymogram assay was performed with some modifications of the previously described method (Khakhum et al., 2016). In other words, an overnight culture of E. coli ATCC 8739 was harvested, washed with phosphate buffered solution (PBS) once, and then harvested by centrifugation at 4,000×g for 15 minutes. Then, the pellets were resuspended in 3 ml of deionized water. The cells were autoclaved and added to a 15% SDS-PAGE gel prior to polymerization. Then, 3 μg of purified endolysin (EC340, mtEC340 or LNT113) was mixed with 2× sample buffer (0.5 mM Tris-HCl, pH 6.8, 20% glycerol, 0.2% bromophenol blue) and loaded on SDS-PAGE. After electrophoresis, the gel was washed with deionized water for 1 hour and incubated in reaction buffer (1% Triton X-100, 20 mM Tris-HCl, pH 7.5) at a room temperature.

K. pneumoniae = assay: Antibacterial activity analysis (colony count after 2 hours in buffer); format: cell-based, Klebsiella pneumoniae; settings: 2 μM
Description: as §1, §2

B1: EC340: endolysin of E. coli bacteriophage PBEC131 (EC340-M-11-12), 162 amino acids (protein)
chain: VSRNISNNGIKFTAAFEGFRGTAYRATPNEKYLTIGYGHYGPDVTPGKTITPGQGLLLLNRDMAKAVAAVDAAAHHSLTQAQFDAVCDLVYNAGAGVIAATTGTGKALRSGDIATLRAKLALFINQNGKPLLGLRRRTAGRLALFDGKPWQEAEAIGRAVKG
modifications: synthetic_EC340
notes: endolysin of E. coli bacteriophage PBEC131 (EC340-M-11-12), 162 amino acids
antibacterial activity (number of bacterium) (E. coli [1]; E. coli ATCC8739, ATCC25922, CCARM1A746, CCARM1B684, 2 hours, Tris-HCl pH 7.5): excellent antibacterial activity | effect of adding NaCl on antibacterial activity (E. coli [1]; E. coli ATCC 8739, Tris or Hepes buffer with 150 mM NaCl): almost inactivated | killing activity (E. coli [1]; Escherichia coli (ATCC 8739), 37° C., 2 hours, 20 mM Tris-Cl pH 7.5): had the killing activity | MIC of endolysin combined with colistin: EC340 (E. coli [2]; Colistin 0): >128 µg/mL | MIC of endolysin combined with colistin: EC340 (E. coli [2]; Colistin 0.0625): 32 µg/mL | MIC of endolysin combined with colistin: EC340 (E. coli [2]; Colistin 0.125): 16 µg/mL | MIC of endolysin combined with colistin: EC340 (E. coli [2]; Colistin 0.25): <2 µg/mL | killing activity [3]: had the killing activity | killing activity [4]: had the killing activity | enzymatic activity in zymogram (E. coli ATCC 8739): enzymatic activity was observed | antibacterial activity (number of bacterium) (K. pneumoniae; K. pneumoniae ATCC700603, KCTC2208, CCARM10143, F85, 2 hours, Tris-HCl pH 7.5): excellent antibacterial activity | effect of adding NaCl on antibacterial activity (K. pneumoniae; K. pneumoniae KCTC 2208, Tris or Hepes buffer with 150 mM NaCl): almost inactivated
